The values below come from US20250152746A1, “BASE EDITING OF ANGPTL3 AND METHODS OF USING SAME FOR TREATMENT OF DISEASE” (Verve Therapeutics, Inc., priority 2020, published 2025).

Data set [1] concerns ANGPTL3 gene. In words: ANGPTL3 gRNA/SpCas9 editing in primary human hepatocytes (Table 3). The class given is cell-based. The procedure: (§1) In set of experiments, PCSK9 gRNAs were co-transfected with an equivalent amount (1:1 ratio by weight) of in vitro transcribed commercially available SpCas9 mRNA MS002 purchased from TriLink Biotechnologies into primary human hepatocytes at 2500, 500, or 100 ng/RNA/mL and processed as described in detailed methods. Extracted genomic DNA was analyzed for gene editing at the target site with next-generation sequencing of PCR amplicons generated around the target sites. Samples were prepared using the Nextera XT DNA library preparation kit (Illumina) according to the manufacturer's protocol. Briefly, two rounds of PCR were performed first to amplify the region of interest and second to add DNA sequences required for next generation sequencing and sample identification to the initial product. The final amplicon was sequenced on the Illumina MiSeq instrument according to the manufacturer's protocol. A wide range of editing activities (Table 2) were observed. In a second set of experiments, ANGPTL3 gRNAs were co-transfected with an equivalent amount of in vitro transcribed SpCas9 mRNA (1:1 ratio by weight) into primary human hepatocytes and processed and analyzed similarly (Table 3).
(§2) Plating, culturing, and transfection of primary hepatocytes. Primary human liver hepatocytes (PHH) and primary cynomolgus liver hepatocytes (PCH) from BioIVT were cultured per the manufacturer's protocol. Briefly, primary human hepatocytes and primary cyno hepatocytes were obtained as frozen aliquots from BioIVT. Four lots of primary human hepatocytes, each derived from a de-identified individual donor, were used for the experiments: STL (main donor) was used for all experiments, including screening experiments and off-target experiments; HLY, JLP, and TLY were used for off-target experiments. The HFG lot of primary cyno hepatocytes were used for experiments. Following the manufacturer's instructions, cells were thawed and rinsed prior to plating in 24-well plates that had been coated with bovine collagen overnight, with a density of approximate 350,000 cells/well in INVITROGRO hepatocyte medium supplemented with TORPEDO antibiotic mix (BioIVT). The cells were thawed and resuspended in hepatocyte thawing medium followed by centrifugation at 100 g for 10 min at 4° C. The supernatant was discarded, and the pelleted cells resuspended in hepatocyte plating medium. Each vial contains approximately 5 million cells that were used for plating one 24-well plate. Plated cells were allowed to settle and adhere for 4-6 h in a tissue culture incubator at 37° C. under 5% CO2 atmosphere. After incubation, cells were checked for monolayer formation. The incubating media were then replaced with fresh hepatocyte maintenance media (complete INVITROGRO medium obtained from BioIVT, the cell line provider). The cells thus became ready for transfection. Each of the gRNAs were co-transfected with an equivalent amount of in vitro transcribed ABE8.8 mRNA (1:1 ratio by molecular weight) into primary human hepatocytes via MessengerMax reagent (Lipofectamine), using various dilutions to assess for editing activity at different concentrations of test article. MessengerMAX from Thermo Fisher is used for transfection. Solution A: desired amount of guide RNA is mixed with 1:1 wt ratio of mRNA in OptiMEM. Solution B: MessengerMAX in OptiMEM. After mixing solutions A and B, the mixture was incubated at room temperature for 20 min. 60 μL of the incubated solution was added dropwise to each cell wells. For protospacer sequences that were a perfect match to the corresponding cynomolgous monkey PCSK9 or ANGPTL3 gene sequence, each gRNA was also co-transfected with an equivalent amount of ABE8.8 mRNA (1:1 ratio by molecular weight) into primary cynomolgous hepatocytes, and followed the same transfection protocol. The cells were then allowed to remain at 37° C. for 3 days. […]

The subject of data set [2] is ANGPTL3 gene. Kind of data set: ANGPTL3 gRNA/SpCas9 editing in primary cynomolgus hepatocytes (Table 3). The class given is cell-based, cynomolgus monkey. The procedure:
as §1, §2

Where two headings read alike, the source gives them in different places.

B1: GA131: ANGPTL3 gRNA; protospacer GAAGATAGAGAAATTTCTGT (SEQ ID NO: 129) (nucleic acid)
guide: GAAGATAGAGAAATTTCTGTGTTTTAGAGCTAGAAATAGCAAGTTAAAATAAGGCTAGTCCGTTATCAACTTGAAAAAGTGGCACCGAGTCGGTGCTTTT
modifications: 2'-O-methyl at 1, 2, other sugars and backbone not given here; further chemistry not fully specified
For B1, in data set [1], the “Human Primary Hepatocyte Editing % 500 ng/mL” value stood at 18.64%. Besides, in data set [2], the “Cyno Primary Hepatocyte Editing % 100 ng/mL” value came to 10.10% and the “Cyno Primary Hepatocyte Editing % 500 ng/ml” value turned out to be 27.57%.

B2: GA137: ANGPTL3 gRNA; protospacer TATCAGGTAAAACCTGTCTA (SEQ ID NO: 135) (nucleic acid)
guide: UATCAGGTAAAACCTGTCTAGTTTTAGAGCTAGAAATAGCAAGTTAAAATAAGGCTAGTCCGTTATCAACTTGAAAAAGTGGCACCGAGTCGGTGCTTTT
modifications: 2'-O-methyl at 1, 2, other sugars, backbone and T or U not given here; further chemistry not fully specified
With B2, in data set [1], the “Human Primary Hepatocyte Editing % 100 ng/ml” value worked out at 11.44% and the “Human Primary Hepatocyte Editing % 500 ng/mL” value is 29.70%. Besides, in data set [2], the “Cyno Primary Hepatocyte Editing % 100 ng/mL” value turned out to be 28.01% and the “Cyno Primary Hepatocyte Editing % 500 ng/ml” value is listed as 30.57%.

B3: GA145: ANGPTL3 gRNA; protospacer CATTATATTCAGGTAGTCCA (SEQ ID NO: 143) (nucleic acid)
guide: CATTATATTCAGGTAGTCCAGTTTTAGAGCTAGAAATAGCAAGTTAAAATAAGGCTAGTCCGTTATCAACTTGAAAAAGTGGCACCGAGTCGGTGCTTTT
modifications: 2'-O-methyl at 1, 2, other sugars and backbone not given here; further chemistry not fully specified
For B3, in data set [1], the “Human Primary Hepatocyte Editing % 100 ng/ml” value was determined as 12.55% and the “Human Primary Hepatocyte Editing % 500 ng/mL” value stood at 26.33%. Moreover, in data set [2], the “Cyno Primary Hepatocyte Editing % 100 ng/mL” value was determined as 18.77% and the “Cyno Primary Hepatocyte Editing % 500 ng/ml” value is given as 30.34%.

B4: GA128: ANGPTL3 gRNA; protospacer TGAAGAAAGGGAGTAGTTCT (SEQ ID NO: 126) (nucleic acid)
guide: UGAAGAAAGGGAGTAGTTCTGTTTTAGAGCTAGAAATAGCAAGTTAAAATAAGGCTAGTCCGTTATCAACTTGAAAAAGTGGCACCGAGTCGGTGCTTTT
modifications: 2'-O-methyl at 1, 2, other sugars, backbone and T or U not given here; further chemistry not fully specified
In the case of B4, in data set [1], the “Human Primary Hepatocyte Editing % 100 ng/ml” value worked out at 10.29% and the “Human Primary Hepatocyte Editing % 500 ng/mL” value is reported as 25.39%. Also, in data set [2], the “Cyno Primary Hepatocyte Editing % 100 ng/mL” value was found to be 0.19% and the “Cyno Primary Hepatocyte Editing % 500 ng/ml” value is listed as 32.55%.

B5: GA127: ANGPTL3 gRNA; protospacer AACATGATGGTAAGACACTT (SEQ ID NO: 125) (nucleic acid)
guide: AACATGATGGTAAGACACTTGTTTTAGAGCTAGAAATAGCAAGTTAAAATAAGGCTAGTCCGTTATCAACTTGAAAAAGTGGCACCGAGTCGGTGCTTTT
modifications: 2'-O-methyl at 1, 2, other sugars and backbone not given here; further chemistry not fully specified
For the molecule B5, in data set [1], the “Human Primary Hepatocyte Editing % 100 ng/ml” value is recorded as 5.77% and the “Human Primary Hepatocyte Editing % 500 ng/mL” value was determined as 18.74%. In data set [2], the “Cyno Primary Hepatocyte Editing % 100 ng/mL” value was 19.89% and the “Cyno Primary Hepatocyte Editing % 500 ng/ml” value is recorded as 33.67%.

B6: GA143: ANGPTL3 gRNA; protospacer TTAATTCAACATCGAATAGA (SEQ ID NO: 141) (nucleic acid)
guide: UUAATTCAACATCGAATAGAGTTTTAGAGCTAGAAATAGCAAGTTAAAATAAGGCTAGTCCGTTATCAACTTGAAAAAGTGGCACCGAGTCGGTGCTTTT
modifications: 2'-O-methyl at 1, 2, other sugars, backbone and T or U not given here; further chemistry not fully specified
Regarding B6, in data set [1], the “Human Primary Hepatocyte Editing % 100 ng/ml” value is 9.30% and the “Human Primary Hepatocyte Editing % 500 ng/mL” value was determined as 19.36%. For the same molecule, in data set [2], the “Cyno Primary Hepatocyte Editing % 100 ng/mL” value is 14.84% and the “Cyno Primary Hepatocyte Editing % 500 ng/ml” value is 21.16%.

B7: GA141: ANGPTL3 gRNA; protospacer TTGAGAGTTGCTGGGTCTGA (SEQ ID NO: 139) (nucleic acid)
guide: UUGAGAGTTGCTGGGTCTGAGTTTTAGAGCTAGAAATAGCAAGTTAAAATAAGGCTAGTCCGTTATCAACTTGAAAAAGTGGCACCGAGTCGGTGCTTTT
modifications: 2'-O-methyl at 1, 2, other sugars, backbone and T or U not given here; further chemistry not fully specified
On to B7, for which, in data set [1], the “Human Primary Hepatocyte Editing % 100 ng/ml” value turned out to be 5.80% and the “Human Primary Hepatocyte Editing % 500 ng/mL” value is reported as 14.87%. In data set [2], the “Cyno Primary Hepatocyte Editing % 100 ng/mL” value was found to be 5.49% and the “Cyno Primary Hepatocyte Editing % 500 ng/ml” value came out at 10.32%.

B8: GA132: ANGPTL3 gRNA; protospacer GGAAGATAGAGAAATTTCTG (SEQ ID NO: 130) (nucleic acid)
guide: GGAAGATAGAGAAATTTCTGGTTTTAGAGCTAGAAATAGCAAGTTAAAATAAGGCTAGTCCGTTATCAACTTGAAAAAGTGGCACCGAGTCGGTGCTTTT
modifications: 2'-O-methyl at 1, 2, other sugars and backbone not given here; further chemistry not fully specified
As for B8, in data set [1], the “Human Primary Hepatocyte Editing % 100 ng/ml” value is reported as 15.25% and the “Human Primary Hepatocyte Editing % 500 ng/mL” value was 28.39%. In addition, in data set [2], the “Cyno Primary Hepatocyte Editing % 100 ng/mL” value stood at 15% and the “Cyno Primary Hepatocyte Editing % 500 ng/ml” value was 26%.

B9: GA148: ANGPTL3 gRNA; protospacer ACAAAACTTCAATGAAACGT (SEQ ID NO: 146) (nucleic acid)
guide: ACAAAACTTCAATGAAACGTGTTTTAGAGCTAGAAATAGCAAGTTAAAATAAGGCTAGTCCGTTATCAACTTGAAAAAGTGGCACCGAGTCGGTGCTTTT
modifications: 2'-O-methyl at 1, 2, other sugars and backbone not given here; further chemistry not fully specified
With B9, in data set [1], the “Human Primary Hepatocyte Editing % 100 ng/ml” value is 12.01% and the “Human Primary Hepatocyte Editing % 500 ng/mL” value was found to be 31.67%. In data set [2], the “Cyno Primary Hepatocyte Editing % 100 ng/mL” value is 28.57% and the “Cyno Primary Hepatocyte Editing % 500 ng/ml” value was determined as 69.75%.

B10: GA130: ANGPTL3 gRNA; protospacer ATGATGGTAAGACACTTTGG (SEQ ID NO: 128) (nucleic acid)
guide: AUGATGGTAAGACACTTTGGGTTTTAGAGCTAGAAATAGCAAGTTAAAATAAGGCTAGTCCGTTATCAACTTGAAAAAGTGGCACCGAGTCGGTGCTTTT
modifications: 2'-O-methyl at 1, 2, other sugars, backbone and T or U not given here; further chemistry not fully specified
Turning to B10, in data set [1], the “Human Primary Hepatocyte Editing % 100 ng/ml” value is given as 7.51% and the “Human Primary Hepatocyte Editing % 500 ng/mL” value was 17.09%. Moreover, in data set [2], the “Cyno Primary Hepatocyte Editing % 100 ng/mL” value was determined as 14.60% and the “Cyno Primary Hepatocyte Editing % 500 ng/ml” value is 25.90%.

B11: GA142: ANGPTL3 gRNA; protospacer TGAAAAACTTGAGAGTTGCT (SEQ ID NO: 140) (nucleic acid)
guide: UGAAAAACTTGAGAGTTGCTGTTTTAGAGCTAGAAATAGCAAGTTAAAATAAGGCTAGTCCGTTATCAACTTGAAAAAGTGGCACCGAGTCGGTGCTTTT
modifications: 2'-O-methyl at 1, 2, other sugars, backbone and T or U not given here; further chemistry not fully specified
On to B11, for which, in data set [1] (100 ng/ml, SpCas9 mRNA 1:1 by weight), the “Human Primary Hepatocyte Editing % 100 ng/ml” value was determined as 10.50%. Also, in data set [1] (500 ng/mL, SpCas9 mRNA 1:1 by weight), the “Human Primary Hepatocyte Editing % 500 ng/mL” value is 24.90%. For the same molecule, in data set [2] (100 ng/mL, SpCas9 mRNA 1:1 by weight), the “Cyno Primary Hepatocyte Editing % 100 ng/mL” value was 20.09%. In addition, the “Cyno Primary Hepatocyte Editing % 500 ng/ml” value in data set [2] (500 ng/ml, SpCas9 mRNA 1:1 by weight) worked out at 27.59%.
